Experimental findings from publication PMC4856396, “The Staphylococcus aureus Global Regulator MgrA Modulates Clumping and Virulence by Controlling Surface Protein Expression” are described below.

In data set [1] the target is T1, MgrA (Staphylococcus aureus LAC, UniProt P0C1S0 1-147).
T1 sequence: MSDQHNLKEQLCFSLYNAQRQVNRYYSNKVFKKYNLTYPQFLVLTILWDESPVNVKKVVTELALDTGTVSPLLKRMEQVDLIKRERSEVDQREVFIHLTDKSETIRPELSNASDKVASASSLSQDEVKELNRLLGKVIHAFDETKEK
Kind of data set: EMSA; 0-2 uM MgrA, 50 nM probe; dose-dependent. The note with it: protein: recombinant; tags: His6-MBP removed by Tev cleavage (untagged; possible linker residues); chain copies: 2; label: IRDye 700 on HC346; blunt. (In general: In EMSA bound probe runs differently from free probe, usually more slowly.)

The target of data set [2] is T1, MgrA. The data set can be described thus: competition; 10-fold excess over labeled sraP P2 probe. The note with it: protein: recombinant; tags: His6-MBP removed by Tev cleavage (untagged; possible linker residues); chain copies: 2; blunt.
Data set [3] addresses T1, MgrA. Kind of data set: EMSA; 0-2 uM MgrA, 50 nM probe. Particulars: protein: recombinant; tags: His6-MBP removed by Tev cleavage (untagged; possible linker residues); chain copies: 2; label: IRDye 700 at one end (HC487); blunt.
Data set [4] concerns the target T1, MgrA. The data set can be described thus: competition; 10-fold excess over labeled Pebh. Particulars: protein: recombinant; tags: His6-MBP removed by Tev cleavage (untagged; possible linker residues); chain copies: 2; blunt.

B1: sraP P2 probe (sraP probe5) (dsDNA)
DNA 1: TTTGTATCAAAAAAGAGTTGTATTAAATTGAATAGTGGCATATATTATAA
DNA 2: TTATAATATATGCCACTATTCAATTTAATACAACTCTTTTTTGATACAAA
On to B1, for which the binding result in data set [1] is reported as “binds”.

B2: sraP specific competitor SP (dsDNA)
DNA 1: B1 DNA 1
DNA 2: B1 DNA 2
B2: the binding result in data set [2] is on record as “binds”.

B3: sraP mutated competitor MP (sraP probe5 mut) (dsDNA)
DNA 1: TTTGTAGATGTCAAGCACCTCATTAAATTGAATAGTGGCATATATTATAA
DNA 2: TTATAATATATGCCACTATTCAATTTAATGAGGTGCTTGACATCTACAAA
On to B3, for which the binding result in data set [2] is “no binding”.

B4: Pebh probe (ebh probe2) (dsDNA)
DNA 1: GAGCATAAATAAATTGTTCAACACATAGTTGTAATGTGTTTCAATACTTT
DNA 2: AAAGTATTGAAACACATTACAACTATGTGTTGAACAATTTATTTATGCTC
For B4, the binding result in data set [3] is “binds”.

B5: ebh specific competitor SP (dsDNA)
DNA 1: B4 DNA 1
DNA 2: B4 DNA 2
On to B5, for which the binding result in data set [4] is listed as “binds”.

B6: non-specific competitor NSP (sraP probe 6) (dsDNA)
DNA 1: CTGGAAAAAATTGGGTAAAATCCGGAATTAAAGAAATAGAAATGTTCAAA
DNA 2: TTTGAACATTTCTATTTCTTTAATTCCGGATTTTACCCAATTTTTTCCAG
On to B6, for which the binding result in data set [4] is “no binding”.
